Measured values published in patent US20230002480A1.

Tests used:
Assay in all cases: cell-based or functional assay
[1] = biological target: HIV-1 Env of pseudovirus 1012_11_TC21_3257 (HIV-1)
[2] = biological target: HIV-1 Env of pseudovirus 1054_07_TC4_1499 (HIV-1)
[3] = biological target: HIV-1 Env of pseudovirus 231965.c01 (HIV-1)
[4] = biological target: HIV-1 Env of pseudovirus 249M B10 (HIV-1)
[5] = biological target: HIV-1 Env of pseudovirus 6041.v3.c23 (HIV-1)
[6] = biological target: HIV-1 Env of pseudovirus 6535.3 (HIV-1)
[7] = biological target: HIV-1 Env of pseudovirus 6811.v7.c18 (HIV-1)
[8] = biological target: HIV-1 Env of pseudovirus BF1266.431a (HIV-1)
[9] = biological target: HIV-1 Env of pseudovirus BJOX009000.02.4 (HIV-1)
[10] = biological target: HIV-1 Env of pseudovirus BJOX010000.06.2 (HIV-1)
[11] = biological target: HIV-1 Env of pseudovirus CAAN5342.A2 (HIV-1)
[12] = biological target: HIV-1 Env of pseudovirus CNE21 (HIV-1)
[13] = biological target: HIV-1 Env of pseudovirus CNE30 (HIV-1)
[14] = biological target: HIV-1 Env of pseudovirus Ce0682_E4 (HIV-1)
[15] = biological target: HIV-1 Env of pseudovirus Ce1176_A3 (HIV-1)
[16] = biological target: HIV-1 Env of pseudovirus Ce704809221_1B3 (HIV-1)
[17] = biological target: HIV-1 Env of pseudovirus Du156.12 (HIV-1)
[18] = biological target: HIV-1 Env of pseudovirus MS208.A1 (HIV-1)
[19] = biological target: HIV-1 Env of pseudovirus Q769.d22 (HIV-1)
[20] = biological target: HIV-1 Env of pseudovirus R1166.c01 (HIV-1)
[21] = biological target: HIV-1 Env of pseudovirus SC05_8C11_2344 (HIV-1)
[22] = biological target: HIV-1 Env of pseudovirus SC422661.8 (HIV-1)
[23] = biological target: HIV-1 Env of pseudovirus T251-18 (HIV-1)
[24] = biological target: HIV-1 Env of pseudovirus T257-31 (HIV-1)
[25] = biological target: HIV-1 Env of pseudovirus THRO4156.18 (HIV-1)
[26] = biological target: HIV-1 Env of pseudovirus TRJO4551.58 (HIV-1)
[27] = biological target: HIV-1 Env of pseudovirus WEAU_d15_410_787 (HIV-1)
[28] = biological target: HIV-1 Env of pseudovirus WITO4160.33 (HIV-1)
[29] = biological target: HIV-1 Env of pseudovirus ZM109F.PB4 (HIV-1)
[30] = biological target: HIV-1 Env of pseudovirus ZM233M.PB6 (HIV-1)
[31] = biological target: HIV-1 Env of pseudovirus ZM249M.PL1 (HIV-1)
[32] = biological target: HIV-1 Env of pseudovirus ZM53M.PB12 (HIV-1)

B1: N49P22 (antibody, V domains shown)
V domain 1: HIQLLQSGPQVKKSGDTVRISCETSGYNFVDSRIHWVRQTPEKRLRWMGWINPLQGGVNYAPEFQGRIRMTRDTFIDTVYVDLSGLTPADTAYYYCARGIDGKSYPFHFWGHGTRVTVFS
V domain 2: RFALTQPASVSGSPGQTITITCAGGSVSWFHFPPGKTPRLIIYESSKRPSGVSPRFSGSQSGSTASLIISGLQSDDEGTYFCSILEFFGRGTLVTVLS
- IC50 [1]: 15.7 µg/mL
- IC80 [1]: > 50 µg/mL
- MPI [1]: 53
- IC50 [2]: 0.654 µg/mL
- IC80 [2]: 2.89 µg/mL
- MPI [2]: 100
- IC50 [3]: 2.04 µg/mL
- IC80 [3]: 35.2 µg/mL
- MPI [3]: 83
- IC50 [4]: > 50 µg/mL
- IC80 [4]: > 50 µg/mL
- MPI [4]: 4
- IC50 [5]: 7.55 µg/mL
- IC80 [5]: > 50 µg/mL
- MPI [5]: 66
- IC50 [6]: > 50 µg/mL
- IC80 [6]: > 50 µg/mL
- MPI [6]: 5
- IC50 [7]: 1 µg/mL
- IC80 [7]: 9.72 µg/mL
- MPI [7]: 92
- IC50 [8]: > 50 µg/mL
- IC80 [8]: > 50 µg/mL
- MPI [8]: 0
- IC50 [9]: 17.3 µg/mL
- IC80 [9]: > 50 µg/mL
- MPI [9]: 64
- IC50 [10]: > 50 µg/mL
- IC80 [10]: > 50 µg/mL
- MPI [10]: 0
- IC50 [11]: 0.425 µg/mL
- IC80 [11]: 1.88 µg/mL
- MPI [11]: 99
- IC50 [12]: > 50 µg/mL
- IC80 [12]: > 50 µg/mL
- MPI [12]: 0
- IC50 [13]: > 50 µg/mL
- IC80 [13]: > 50 µg/mL
- MPI [13]: 30
- IC50 [14]: 1.13 µg/mL
- IC80 [14]: > 50 µg/mL
- MPI [14]: 75
- IC50 [15]: > 50 µg/mL
- IC80 [15]: > 50 µg/mL
- MPI [15]: 23
- IC50 [16]: 15.8 µg/mL
- IC80 [16]: > 50 µg/mL
- MPI [16]: 60
- IC50 [17]: > 50 µg/mL
- IC80 [17]: > 50 µg/mL
- MPI [17]: 4
- IC50 [18]: > 50 µg/mL
- IC80 [18]: > 50 µg/mL
- MPI [18]: 17
- IC50 [19]: 0.043 µg/mL
- IC80 [19]: 0.259 µg/mL
- MPI [19]: 100
- IC50 [20]: 0.232 µg/mL
- IC80 [20]: 0.799 µg/mL
- MPI [20]: 100
- IC50 [21]: 0.251 µg/mL
- IC80 [21]: 2.16 µg/mL
- MPI [21]: 97
- IC50 [22]: 0.12 µg/mL
- IC80 [22]: 0.544 µg/mL
- MPI [22]: 100
- IC50 [23]: 0.58 µg/mL
- IC80 [23]: 3.09 µg/mL
- MPI [23]: 99
- IC50 [24]: > 50 µg/mL
- IC80 [24]: > 50 µg/mL
- MPI [24]: 43
- IC50 [25]: > 50 µg/mL
- IC80 [25]: > 50 µg/mL
- MPI [25]: 32
- IC50 [26]: > 50 µg/mL
- IC80 [26]: > 50 µg/mL
- MPI [26]: 28
- IC50 [27]: 1.54 µg/mL
- IC80 [27]: > 50 µg/mL
- MPI [27]: 76
- IC50 [28]: 4.86 µg/mL
- IC80 [28]: > 50 µg/mL
- MPI [28]: 74
- IC50 [29]: > 50 µg/mL
- IC80 [29]: > 50 µg/mL
- MPI [29]: 1
- IC50 [30]: > 50 µg/mL
- IC80 [30]: > 50 µg/mL
- MPI [30]: 2
- IC50 [31]: > 50 µg/mL
- IC80 [31]: > 50 µg/mL
- MPI [31]: 0
- IC50 [32]: 1.2 µg/mL
- IC80 [32]: 11.8 µg/mL
- MPI [32]: 91
